Results as given in patent publication US10253076B2, “Peptides and combination of peptides for use in immunotherapy against ovarian cancer and other cancers” (immatics biotechnologies GmbH, priority 2015, dated 2019).

Target: HLA-A*02:01 (Homo sapiens, UniProt P04439, D140Y/D185E/D98H/E176V/E277Q/G131W/G231S/I119V/I121R/I166T/I218V/L300P/L318F/N151K/N90K/P208A/P217A/Q86G/Q94H/R138H/R169H/T345S)
Assay: MHC binding assay (UV-ligand exchange, beta2m ELISA, peptide exchange yield)
Conditions: binding of HLA-class I restricted peptides to HLA-A*02:01, ranged by peptide exchange yield (UV-ligand exchange, β2m ELISA)
Summary of the method: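 Peptide–HLA-A*02:01 complexes made by UV-mediated exchange of a photocleavable peptide with the test peptide. Exchange products diluted 100-fold on streptavidin-coated plates, 1 h at 37°C, then HRP anti-β2m 1 h at 37°C; TMB read at 450 nm to give exchange yield.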

Substance	Peptide exchange
50 (SLSELEALM; listed as Homo sapiens) [compound 50]	″+++″ (≥50% = +++)
106 (LLYDAVHIVSV; listed as Homo sapiens) [compound 106]	″+++″ (≥50% = +++)
267 (ALQDFLLSV; listed as Homo sapiens) [compound 267]	″+++″ (≥50% = +++)
399 (YLFEPLYHV; listed as Homo sapiens) [compound 399]	″+++″ (≥50% = +++)
611 (YLLDDGTLVV; listed as Homo sapiens) [compound 611]	″++++″ (≥75% = ++++)
195 (GLFADLLPRL; listed as Homo sapiens) [compound 195]	″+++″ (≥50% = +++)
321 (GLFEDVTQPGILL; listed as Homo sapiens) [compound 321]	″++++″ (≥75% = ++++)
270 (LLLDEEGTFSL; listed as Homo sapiens) [compound 270]	″++″ (≥20% = ++)
96 (YIFTDNPAAV; listed as Homo sapiens) [compound 96]	″+++″ (≥50% = +++)
183 (FGLDLVTEL; listed as Homo sapiens) [compound 183]	″+++″ (≥50% = +++)
586 (KLKPGDLVGV; listed as Homo sapiens) [compound 586]	″+++″ (≥50% = +++)
216 (NLWEDPYYL; listed as Homo sapiens) [compound 216]	″+++″ (≥50% = +++)
92 (YLIPFTGIVGL; listed as Homo sapiens) [compound 92]	″++″ (≥20% = ++)
314 (ALIAEGIALV; listed as Homo sapiens) [compound 314]	″+++″ (≥50% = +++)
104 (STMEQNFLL; listed as Homo sapiens) [compound 104]	″++++″ (≥75% = ++++)
217 (ALIHPVSTV; listed as Homo sapiens) [compound 217]	″++″ (≥20% = ++)
374 (FLLQQHLISA; listed as Homo sapiens) [compound 374]	″++″ (≥20% = ++)
41 (SLMPHIPGL; listed as Homo sapiens) [compound 41]	″+++″ (≥50% = +++)
390 (ALFMKQIYL; listed as Homo sapiens) [compound 390]	″+++″ (≥50% = +++)
320 (KMFEFVEPLL; listed as Homo sapiens) [compound 320]	″++++″ (≥75% = ++++)
280 (VLPDPEVLEAV; listed as Homo sapiens) [compound 280]	″+++″ (≥50% = +++)
455 (SLLKEPQKVQL; listed as Homo sapiens) [compound 455]	″++″ (≥20% = ++)
86 (NLIGKIENV; listed as Homo sapiens) [compound 86]	″+++″ (≥50% = +++)
301 (FLVEDLVDSL; listed as Homo sapiens) [compound 301]	″+++″ (≥50% = +++)
130 (FLWNGEDSALL; listed as Homo sapiens) [compound 130]	″+++″ (≥50% = +++)

Substance	Peptide exchange
506 (KLLGKVETA; listed as Homo sapiens) [compound 506]	″+++″ (≥50% = +++)
168 (KILDADIQL; listed as Homo sapiens) [compound 168]	″++++″ (≥75% = ++++)
149 (NLLELFVQL; listed as Homo sapiens) [compound 149]	″+++″ (≥50% = +++)
615 (VLPPDTDPA; listed as Homo sapiens) [compound 615]	″++″ (≥20% = ++)
275 (YLVYILNEL; listed as Homo sapiens) [compound 275]	″++″ (≥20% = ++)
330 (QLALKVEGV; listed as Homo sapiens) [compound 330]	″+++″ (≥50% = +++)
29 (KMLGIPISNILMV; listed as Homo sapiens) [compound 29]	″+++″ (≥50% = +++)
277 (LLPPLESLATV; listed as Homo sapiens) [compound 277]	″++″ (≥20% = ++)
140 (YMDAPKAAL; listed as Homo sapiens) [compound 140]	″++″ (≥20% = ++)
160 (FLFDEEIEQI; listed as Homo sapiens) [compound 160]	″+++″ (≥50% = +++)
407 (YLMDLINFL; listed as Homo sapiens) [compound 407]	″+++″ (≥50% = +++)
173 (LLDSASAGLYL; listed as Homo sapiens) [compound 173]	″+++″ (≥50% = +++)
237 (ALLEASGTLLL; listed as Homo sapiens) [compound 237]	″++++″ (≥75% = ++++)
380 (TLIEDEIATI; listed as Homo sapiens) [compound 380]	″++″ (≥20% = ++)
124 (ALYETELADA; listed as Homo sapiens) [compound 124]	″++″ (≥20% = ++)
232 (ALLEAQDVELYL; listed as Homo sapiens) [compound 232]	″++″ (≥20% = ++)
569 (KLVDRTWTL; listed as Homo sapiens) [compound 569]	″+++″ (≥50% = +++)
266 (KITDTLIHL; listed as Homo sapiens) [compound 266]	″+++″ (≥50% = +++)
555 (YVLEGLKSV; listed as Homo sapiens) [compound 555]	″+++″ (≥50% = +++)
63 (YLLPSGGSVTL; listed as Homo sapiens) [compound 63]	″++″ (≥20% = ++)
433 (AMLNEPWAV; listed as Homo sapiens) [compound 433]	″+++″ (≥50% = +++)
529 (LLADELITV; listed as Homo sapiens) [compound 529]	″+++″ (≥50% = +++)
126 (VLAYFLPEA; listed as Homo sapiens) [compound 126]	″++++″ (≥75% = ++++)
194 (ALPLFVITV; listed as Homo sapiens) [compound 194]	″+++″ (≥50% = +++)

Next, values leading:

Peptide exchange	Substance
″++++″ (≥75% = ++++)	466 (VLIANLEKL; listed as Homo sapiens) [compound 466]
″++″ (≥20% = ++)	451 (LLLLDTVTMQV; listed as Homo sapiens) [compound 451]
″+++″ (≥50% = +++)	239 (AAFAGKLLSV; listed as Homo sapiens) [compound 239]
″++″ (≥20% = ++)	580 (LLMENAERV; listed as Homo sapiens) [compound 580]
″++″ (≥20% = ++)	434 (KVSNSGITRV; listed as Homo sapiens) [compound 434]
″++++″ (≥75% = ++++)	109 (IILSILEQA; listed as Homo sapiens) [compound 109]
″+++″ (≥50% = +++)	245 (SMIDDLLGV; listed as Homo sapiens) [compound 245]
″+++″ (≥50% = +++)	181 (LLWAGTAFQV; listed as Homo sapiens) [compound 181]
″++++″ (≥75% = ++++)	52 (FLLAHGLGFLL; listed as Homo sapiens) [compound 52]
″++++″ (≥75% = ++++)	329 (FLVTLNNVEV; listed as Homo sapiens) [compound 329]
″++++″ (≥75% = ++++)	177 (YLLPEEYTSTL; listed as Homo sapiens) [compound 177]
″++″ (≥20% = ++)	504 (GLSDGNPSL; listed as Homo sapiens) [compound 504]
″+++″ (≥50% = +++)	42 (VLLQKIVSA; listed as Homo sapiens) [compound 42]
″++″ (≥20% = ++)	261 (YVLEFLEEI; listed as Homo sapiens) [compound 261]
″+++″ (≥50% = +++)	560 (ALWDIETGQQTTT; listed as Homo sapiens) [compound 560]
″+++″ (≥50% = +++)	476 (ALMERTGYSMV; listed as Homo sapiens) [compound 476]
″+++″ (≥50% = +++)	165 (SLLDEIRAV; listed as Homo sapiens) [compound 165]
″++″ (≥20% = ++)	570 (ALANQIPTV; listed as Homo sapiens) [compound 570]
″+++″ (≥50% = +++)	589 (KLYPQLPAEI; listed as Homo sapiens) [compound 589]
″++″ (≥20% = ++)	94 (YLIDIKTIAI; listed as Homo sapiens) [compound 94]
″++″ (≥20% = ++)	204 (KIAENVEEV; listed as Homo sapiens) [compound 204]
″++″ (≥20% = ++)	172 (VLYSYTIITV; listed as Homo sapiens) [compound 172]
″+++″ (≥50% = +++)	224 (TLIDAQWVL; listed as Homo sapiens) [compound 224]
″++″ (≥20% = ++)	379 (IMEGTLTRV; listed as Homo sapiens) [compound 379]
″++″ (≥20% = ++)	516 (AVGPASILKEV; listed as Homo sapiens) [compound 516]
″++″ (≥20% = ++)	212 (ALWDQDNLSV; listed as Homo sapiens) [compound 212]
″+++″ (≥50% = +++)	179 (KVLNELYTV; listed as Homo sapiens) [compound 179]
″++++″ (≥75% = ++++)	89 (YILPTETIYV; listed as Homo sapiens) [compound 89]
